Experimental data reported in US20020156245A1.

These substances were tested against human Ptch (SEQ ID NO:4) (human) (UniProt Q13635) (assay: Scatchard analysis of displacement of 125I-Shh from 293 cells expressing Ptch).

Kd [nM]	Substance
2.6	Dhh (SEQ ID NO:13) (from UniProt Q61488 23-198) (ligand)
1	Ihh (SEQ ID NO:29) (from UniProt P97812 28-202) (ligand)
1	Shh (SEQ ID NO:14), 19 kD amino terminal fragment of murine Shh (from UniProt Q62226 25-198) (ligand)
